According to paper PMC6514633, “Structural and functional consequences of age-related isomerization in α-crystallins” (The Journal of Biological Chemistry, 2019):
Numbering of substitutions follows the chain as printed. Numbers in names are those of the source. Where no end group is shown, it is not given here. [ ]: non-standard residue; d: D form.

B1: G-Ct-G peptide GERAIPVSREG with L-Ser (appended-glycine L-isomer) (peptide)
peptide: GERAIPVSREG
B2: C-terminal palindromic peptide of αA-crystallin with D-Ser-162 (D-peptide) (peptide)
chain: ERAIPV[dS]RE
B3: Core αB (cABC, residues 68–153) (domain or fragment, human, UniProt P02511 68-153, looked up)
chain: MRLEKDRFSVNLDVKHFSPEELKVKVLGDVIEVHGKHEERQDEHGFISREFHRKYRIPADVDPLTITSSLSSDGVLTVNGPRKQVS
notes: αB-crystallin, human, α-crystallin core domain, residues 68-153; also called αB core; core of αB
B4: Ct peptide ERAIPVSRE with L-Ser (canonical all L-amino acid form) (peptide)
peptide: ERAIPVSRE
B5: Full-length αB-crystallin (WT) (natural protein, human, UniProt P02511 1-175, looked up)
chain: MDIAIHHPWIRRPFFPFHSPSRLFDQFFGEHLLESDLFPTSTSLSPFYLRPPSFLRAPSWFDTGLSEMRLEKDRFSVNLDVKHFSPEELKVKVLGDVIEVHGKHEERQDEHGFISREFHRKYRIPADVDPLTITSSLSSDGVLTVNGPRKQVSGPERTIPITREEKPAVTAAPKK
notes: αB-crystallin, human, full length; Polydisperse oligomers; also called WT αB
B6: Full-length αB-crystallin D109A (isoAsp-mimic) (natural protein, human, UniProt P02511 1-175, looked up)
chain: B5 chain with D109A
notes: αB-crystallin, human, full length, with D109A; source: expressed and purified in the same manner as WT
B7: Full-length αB-crystallin S59D (phosphomimic) (natural protein, human, UniProt P02511 1-175, looked up)
chain: B5 chain with S59D
notes: αB-crystallin, human, full length, with S59D; also called αBS59D; source: expressed and purified in the same manner as WT

Columns and labels:
[1] = target: core αA (cAAC, residues 59–153) (human, UniProt P02489 59-153, some population of BME-adducted protein); test: native MS; competition: core domain 10 μM mixed with an L-Ser and a D-Ser peptide (one with added glycines), 40 μM each (4:1 peptide/domain), 200 mM ammonium acetate pH 6.9; monomeric species, 5+, 6+, 7+ charge states quantified; settings: both partners purified
Chain of core αA (cAAC, residues 59–153) (P02489 59-153): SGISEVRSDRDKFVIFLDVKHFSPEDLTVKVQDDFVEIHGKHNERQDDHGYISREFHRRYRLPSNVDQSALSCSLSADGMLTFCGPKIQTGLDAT

[2] = target: B3; test: as above; settings: both partners purified
[3] = target: core αA (cAAC, residues 59-153) (human, UniProt P02489 59-153, some population of BME-adducted protein); test: native MS; competition: 10 μM core domain with 40 μM each of L-Ser and D-Ser peptide, 200 mM ammonium acetate pH 6.9; monomeric species, 5+, 6+ and 7+ charge states; approximate dissociation constants calculated from abundance ratios (El-Hawiet et al.); settings: both partners purified
Chain of core αA (cAAC, residues 59-153) (P02489 59-153): as above

[4] = target: the molecule itself; test: native MS; core domains analysed alone, 10 μM, 200 mM ammonium acetate pH 6.9, Synapt G1
[5] = target: the molecule itself; test: native MS; full-length αB and mutants, 15 μM by monomer, 200 mM ammonium acetate pH 6.9, QExactive Orbitrap; intact spectra and CID with charge deconvolution (UniDec) to oligomeric distributions

**Q.** Does B1 bind [1]?
**A.** Result: binds

**Q.** Does B1 bind [2]?
**A.** Result: binds

**Q.** With B2 as the binder, how does the Kd [3] read?
**A.** The Kd was 660 µM.

**Q.** With B3 as the binder, how does the “stoichiometry N” value [4] read?
**A.** The value was 2.

**Q.** Which Kd [1] does the source give for B4 here?
**A.** The Kd was 48 µM.

**Q.** What about the Kd [2] of the same binder?
**A.** Its Kd is 115 µM.

**Q.** Does B5 bind [5]?
**A.** Result: binds

**Q.** Does B6 bind [5]?
**A.** Result: binds

**Q.** With B7 as the binder, how does the “stoichiometry N” value [5] read?
**A.** Its value is roughly 18.
